Results published in publication PMC7067772, “Digenic inheritance of mutations in EPHA2 and SLC26A4 in Pendred syndrome” (Nature Communications, 2020).

Key:
ephrin-B2 (Homo sapiens) = ephrin-B2 (Homo sapiens) (UniProt P52799); conditions: cited from earlier work
ephrin-A4 (Homo sapiens) = ephrin-A4 (Homo sapiens) (UniProt P52798); conditions: cited from earlier work
ephrin-A5 (Homo sapiens) = ephrin-A5 (Homo sapiens) (UniProt P52803); conditions: cited from earlier work
[1] = target: V5-EphA2 (pcDNA3.2-V5-EphA2) (UniProt P29317); experiment: co-immunoprecipitation with densitometric quantification; conditions: n = 3; parent: est. 1.0; read off a plot
[2] = target: T1, fc-fusion protein of the EphA2 extracellular domain (UniProt P29317 24-537); experiment: ELISA; plates coated with ephrin-A5 Fc or ephrin-B2 Fc (3 μg/ml, 50 mM carbonate buffer pH 9.5, overnight at 4 °C); diluted EphA2 Fc analyte 1 h at room temperature; detection with biotinylated 1F7 mAb and UltraStreptavidin-HRP, OD492 nm (the results say that the EphA2 Fc was immobilised); conditions: both partners purified
T1 construct: EphA2 extracellular domain; Detected in the ELISA with biotinylated 1F7 mAb; also called EphA2 Fc
T1 sequence (P29317 24-537): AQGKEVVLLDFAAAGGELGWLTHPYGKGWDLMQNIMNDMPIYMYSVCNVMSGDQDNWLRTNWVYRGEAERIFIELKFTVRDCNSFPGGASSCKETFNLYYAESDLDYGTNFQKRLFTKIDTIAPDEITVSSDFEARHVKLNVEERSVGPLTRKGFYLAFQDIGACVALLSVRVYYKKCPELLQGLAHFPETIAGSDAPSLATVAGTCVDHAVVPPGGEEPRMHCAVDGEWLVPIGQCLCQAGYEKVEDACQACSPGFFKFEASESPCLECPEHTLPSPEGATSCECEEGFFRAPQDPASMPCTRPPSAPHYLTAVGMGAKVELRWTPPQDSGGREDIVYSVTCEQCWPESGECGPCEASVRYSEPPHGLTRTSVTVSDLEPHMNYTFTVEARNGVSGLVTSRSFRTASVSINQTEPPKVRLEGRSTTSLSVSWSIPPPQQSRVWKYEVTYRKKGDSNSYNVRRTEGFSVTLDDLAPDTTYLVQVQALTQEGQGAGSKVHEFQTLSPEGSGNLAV

ephrin-A4 (Homo sapiens), sequence (P52798 26-170): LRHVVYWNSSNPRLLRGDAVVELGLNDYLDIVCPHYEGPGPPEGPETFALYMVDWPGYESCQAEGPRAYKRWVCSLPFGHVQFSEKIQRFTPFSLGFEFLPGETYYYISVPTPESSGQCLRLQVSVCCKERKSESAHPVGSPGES
V5-EphA2 (pcDNA3.2-V5-EphA2), sequence (P29317 24-976): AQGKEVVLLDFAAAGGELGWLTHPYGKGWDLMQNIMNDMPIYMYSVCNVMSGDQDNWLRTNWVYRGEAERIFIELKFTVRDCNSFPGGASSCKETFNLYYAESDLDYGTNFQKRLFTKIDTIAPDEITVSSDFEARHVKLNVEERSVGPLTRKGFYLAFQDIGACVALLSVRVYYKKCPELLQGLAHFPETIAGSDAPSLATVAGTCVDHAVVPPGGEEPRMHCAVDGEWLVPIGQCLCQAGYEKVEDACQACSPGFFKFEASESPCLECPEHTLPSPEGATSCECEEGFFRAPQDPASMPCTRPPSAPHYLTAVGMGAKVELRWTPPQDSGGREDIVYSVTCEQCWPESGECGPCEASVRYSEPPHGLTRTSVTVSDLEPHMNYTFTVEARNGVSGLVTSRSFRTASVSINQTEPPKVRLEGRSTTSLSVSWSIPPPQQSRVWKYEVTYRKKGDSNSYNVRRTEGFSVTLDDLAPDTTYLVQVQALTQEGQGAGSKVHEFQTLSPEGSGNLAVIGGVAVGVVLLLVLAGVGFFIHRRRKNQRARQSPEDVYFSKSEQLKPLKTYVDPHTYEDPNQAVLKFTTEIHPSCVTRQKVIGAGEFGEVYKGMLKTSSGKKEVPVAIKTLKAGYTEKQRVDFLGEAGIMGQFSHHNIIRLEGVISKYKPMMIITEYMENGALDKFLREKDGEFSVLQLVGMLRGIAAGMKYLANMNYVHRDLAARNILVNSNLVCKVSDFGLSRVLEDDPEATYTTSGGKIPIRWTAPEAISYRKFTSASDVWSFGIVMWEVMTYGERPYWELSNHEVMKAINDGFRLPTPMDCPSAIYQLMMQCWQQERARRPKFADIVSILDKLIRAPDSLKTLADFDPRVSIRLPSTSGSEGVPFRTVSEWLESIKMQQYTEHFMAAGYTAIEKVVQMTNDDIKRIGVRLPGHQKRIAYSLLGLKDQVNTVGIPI

EphA4 (from UniProt P54764)
Kd (ephrin-B2 (Homo sapiens)): 10800 nM
Kd (ephrin-A4 (Homo sapiens)): 36 nM
Kd (ephrin-A5 (Homo sapiens)): 360 nM

myc-tagged pendrin (pCMV-Myc-pendrin) (from UniProt O43511) F355L
ratio to parent [1]: 0.98

B1: soluble ephrin-B2 extracellular domain-Fc fusion protein (Fc fusion, UniProt P52799 28-229, looked up)
chain: IVLEPIYWNSSNSKFLPGQGLVLYPQIGDKLDIICPKVDSKTVGQYEYYKVYMVDKDQADRCTIKKENTPLLNCAKPDQDIKFTIKFQEFSPNLWGLEFQKNKDYYIISTSNGSLEGLDNQEGGVCQTRAMKILMKVGQDASSAGSTRNKDPTRRPELEAGTNGRSSTTSPFVKPNPGSSTDGNSAGHSGNNILGSEVALFA
notes: ephrin-B2 extracellular domain; also called ephrin-B2-Fc; ephrin-B2 Fc chimera protein
Kd [2]: 85 nM

B2: ephrin-A5 Fc fusion protein (Fc fusion, UniProt P52803 21-203, looked up)
chain: QDPGSKAVADRYAVYWNSSNPRFQRGDYHIDVCINDYLDVFCPHYEDSVPEDKTERYVLYMVNFDGYSACDHTSKGFKRWECNRPHSPNGPLKFSEKFQLFTPFSLGFEFRPGREYFYISSAIPDNGRRSCLKLKVFVRPTNSCMKTIGVHDRVFDVNDKVENSLEPADDTVHESAEPSRGEN
notes: ephrin-A5
Kd [2]: 2 nM
